Test results: article PMC12312913 (2025)

T1: J protein (bacteriophage, UniProt P0DXX7)
T1 chain: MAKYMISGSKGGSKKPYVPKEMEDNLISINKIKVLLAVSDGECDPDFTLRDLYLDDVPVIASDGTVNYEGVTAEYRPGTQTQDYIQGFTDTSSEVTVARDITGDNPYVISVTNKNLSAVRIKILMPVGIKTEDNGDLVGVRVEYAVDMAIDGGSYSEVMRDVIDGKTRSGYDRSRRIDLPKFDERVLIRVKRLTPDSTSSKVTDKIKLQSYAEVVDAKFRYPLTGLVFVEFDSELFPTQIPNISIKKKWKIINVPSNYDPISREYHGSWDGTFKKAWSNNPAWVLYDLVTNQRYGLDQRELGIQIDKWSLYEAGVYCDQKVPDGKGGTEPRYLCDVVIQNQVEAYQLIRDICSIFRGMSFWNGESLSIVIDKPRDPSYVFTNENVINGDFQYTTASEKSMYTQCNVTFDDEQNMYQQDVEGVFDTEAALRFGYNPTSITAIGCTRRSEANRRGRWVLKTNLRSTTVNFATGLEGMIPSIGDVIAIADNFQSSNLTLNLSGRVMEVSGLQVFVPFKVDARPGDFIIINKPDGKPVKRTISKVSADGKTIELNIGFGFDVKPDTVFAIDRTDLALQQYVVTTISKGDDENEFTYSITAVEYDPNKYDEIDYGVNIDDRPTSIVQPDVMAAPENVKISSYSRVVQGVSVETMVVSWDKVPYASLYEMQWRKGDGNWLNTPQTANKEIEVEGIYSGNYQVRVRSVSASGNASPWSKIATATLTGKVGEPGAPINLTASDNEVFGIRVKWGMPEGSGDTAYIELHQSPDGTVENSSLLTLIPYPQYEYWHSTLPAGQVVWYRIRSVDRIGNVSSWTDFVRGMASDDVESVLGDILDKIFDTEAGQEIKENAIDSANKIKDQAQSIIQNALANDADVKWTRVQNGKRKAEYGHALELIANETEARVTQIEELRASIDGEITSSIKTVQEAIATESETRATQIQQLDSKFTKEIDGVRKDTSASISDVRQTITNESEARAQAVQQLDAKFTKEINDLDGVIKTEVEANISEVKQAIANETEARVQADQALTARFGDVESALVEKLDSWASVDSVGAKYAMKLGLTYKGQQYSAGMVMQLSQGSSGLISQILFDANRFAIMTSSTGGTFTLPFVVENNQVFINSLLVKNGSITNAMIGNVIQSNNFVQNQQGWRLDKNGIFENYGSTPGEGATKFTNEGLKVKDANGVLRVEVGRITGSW

B1: OmpX fused to TF and His tag (receptor)
chain: MKKIACLSALAAVLAFSAGTAVAATSTVTGGYAQSDAQGVANKMSGFNLKYRYEQDDNPLGVIGSFTYTEKDRTNGAGDYNKGQYYGITAGPAYRLNDWASIYGVVGVGYGKFQTTDYPTYKHDTSDYGFSYGAGLQFNPMENVALDFSYEQSRIRSVDVGTWIAGVGYRF
B2: BtuB (protein)
chain: QDTSPDTLVVTANRFQQPRSAVLAPVTIVTRQDIERWQSTSVNDVLRRLPGVDIAQSGGAGQNSSIFIRGTNSSHVLVLIDGVRLNLAGVSGSADLSQFPVSLVQRIEYIRGPRSAIYGSDAIGGVVNIITTRDNPGTELTAGWGSNSYQNYDISTQQQLGENTRATLIGDYEYTKGFDVVAKGGTGMQAQPDRDGFLSKTLYGALEHTFSDRWSGFVRGYGYDNRTDYDAYYSPGSPLIDTRKLYSQSWDAGLRFNGERIQSQLVSSYSHSKDYNYDPHYGRYDTSATLDEMKQYNVQWTNSVVVGHGNVGAGVDWQKQTTTPGTGYVPEGYDQRNTGVYLTGLQQLGDFTLEAAARSDDNSQFGRHGTWQTSAGWEFIEGYRFIASYGTSYKAPNLGQLYGYYGNPNLNPEKSKQWEGAFEGLTAGVSWRISGYRNDINDMIDYDDHLQKYYNEGKARIKGIEATANFDTGPLTHTVSYDYVDARNAITDTPLPRRSKQMAKYQLDWDVYDFDWGVTYQYLGSRYDSDYSAYPYRTVKMGGVSLWDLTVAYPVTSHLTVRGKIANLFDKDYETVYGYQTAGREYTLSGSYTF
B3: OmpX (protein)
chain: ATSTVTGGYAQSDAQGQMNKMGGFNLKYRYEEDNSPLGVIGSFTYTEKSRTASSGDYNKNQYYGITAGPAYRINDWASIYGVVGVGYGKFQTTEYPTYKHDTSDYGFSYGAGLQFNPMENVALDFSYEQSRIRSVDVGTWIAGVGYRF

What was measured:
[1] = target: Gifsy-1 central tail tip J protein with Flag tag (phage Gifsy-1 of Salmonella Typhimurium); assay: BLI
J protein = target: T1, J protein; assay: BLI

Row | Binder | koff [1] [s⁻¹] | Kd (J protein) [nM]
1 | B1 | 0.000275 | –
2 | B2 | – | 0.00597
3 | B3 | – | 70
